Test results: publication PMC5095173, “Disulfide-activated protein kinase G Iα regulates cardiac diastolic relaxation and fine-tunes the Frank–Starling response” (Nature Communications, 2016)

What was measured:
[1] = system: PKGIα (analogue-sensitive M438G), disulfide-activated; assay: Chemical genetic phosphoproteomic screen, disulfide-activated PKGIα M438G versus unactivated control; type: biochemical, human PKGIα; substrates in rat heart homogenate; settings: for log2 fold change Disulfide vs Control: control = PKGIα C42S/M438G; for log2 fold changes: Group 2 (disulfide-activated) vs Group 3 (control)
Method in brief: (§1)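 Analogue-sensitive human PKGIα mutants (M438G, air-oxidized to disulfide dimer; C42S/M438G, cGMP-activated), expressed in 293-F cells, thiophosphorylate substrates in rat left-ventricle lysate (20 mg ml) using N6-alkylated ATPγS. Thiophosphopeptides are recovered by covalent capture and identified with sites by LC–MS/MS, each compared against an unactivated control.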

[2] = system: PKGIα (analogue-sensitive C42S/M438G), cGMP-activated; assay: Chemical genetic phosphoproteomic screen, cGMP-activated PKGIα C42S/M438G versus unactivated control; type: biochemical, human PKGIα; substrates in rat heart homogenate; settings: for log2 fold change cGMP vs Control: control = PKGIα C42S/M438G; for log2 fold changes: Group 1 (cGMP-activated) vs Group 3 (control)
Method in brief: as §1

Row | Molecule | log2 fold change Disulfide vs Control [1] | log2 fold change cGMP vs Control [2] | log2 fold changes [1] | log2 fold changes [2]
1 | Ndrg2 pS332 (protein, UniProt Q8VBU2 2-371, looked up, phosphorylated at S332) Protein NDRG2: AELQEVQITEEKPLLPGQTPEAAKEAELAARILLDQGQTHSVETPYGSVTFTVYGTPKPKRPAIFTYHDVGLNYKSCFQPLFQFGDMQEIIQNFVRVHVDAPGMEEGAPVFPLGYQYPSQDQLADMIPCILQYLNFSTIIGVGVGAGAYILSRYALNHPDTVEGLVLINIDPNAKGWMDWAAHKLTGLTSSIPEMILGHLFSQEELSGNSELIQKYRSLITHAPNLENIELYWNSYNNRRDLNFERGGEMTLKCPVMLVVGDQAPHEDAVVECNSKLDPTQTSFLKMADSGGQPQLTQPGKLTEAFKYFVQGMGYMASSCMTRLSRSRTASLTSAASIDGSRSRSRTLSQSSESGTLPSGPPGHTMEVSC | 1.914 | 3.419 |  | 
2 | Ppp1r12a pT697 (protein, UniProt Q10728 1-1032, looked up, phosphorylated at T697) Protein phosphatase 1 …: MKMADAKQKRNEQLKRWIGSETDLEPPVVKRQKTKVKFDDGAVFLAACSSGDTDEVLKLLHRGADINYANVDGLTALHQACIDDNVDMVKFLVENGANINQPDNEGWIPLHAAASCGYLDIAEFLIGQGAHVGAVNSEGDTPLDIAEEEAMEELLQNEVNRQGVDIEAARKEEERIMLRDARQWLNSGHISDVRHAKSGGTALHVAAAKGYTEVLKLLIQAGYDVNIKDYDGWTPLHAAAHWGKEEACRILVDNLCDMETVNKVGQTAFDVADEDILGYLEELQKKQNLLHSEKRDKKSPLIESTANMENNQPQKTFKNKETLIIEPEKNASRIESLEQEKADEEEEGKKDESSCSSEEDEEDDSESEAETDKTKPMASVTNAHTASTQAAPAAVTTPTLSSNQGTPTSPVKKFPTSTTKISPKEEERKDESPASWRLGLRKTGSYGALAEITASKEAQKEKDTAGVIRSASSPRLSSSLDNKEKEKDNKGTRLAYVAPTIPRRLGSTSDIEEKENRESSNLRTSSSYTRRKWEDDLKKNSSINEGSTYHRSCSFGRRQDDLISCSVPSTTSTPTVTSAAGLQKSFLSSTSTTAKTPPGSSPAGTQSSTSNRLWAEDSTEKEKDSAPTAATILVAPTVVSAAASSTTALTTTTAGTLSSTSEVRERRRSYLTPVRDEESESQRKARSRQARQSRRSTQGVTLTDLQEAEKTIGRSRSTRTREQENEEKDKEEKEKQDKEKQEEKKESEVSREDEYKQKYSRTYDETYARYRPVSTSSSSTPSSSSLSTLGSSLYASSQLNRPNSLVGITSAYSRGLTKDNEREGEKKEEEKEGEDKSQPKSIRERRRPREKRRSTGVSFWTQDSDENEQERQSDTEDGSSKRDTQTDSVSRYDSSSTSSSDRYDSLLGRSASYSYLEERKPYGSRLEKDDSTDFKKLYEQILAENEKLKAQLHDTNMELTDLKLQLEKATQRQERFADRSLLEMEKRERRALERRISEMEEELKMLPDLKADNQRLKDENGALIRVISKLSK | 0.1684 | 0.8734 |  | 
3 | Ppp1r2 pT21 (protein, UniProt P50411 2-205, looked up, phosphorylated at T21) Protein phosphatase inhibitor …: AASTASHRPIKGILKNKTSTTSSVVASAEQPRRTVEEELSKKSQKWDEMNILATYHPADKDYGLMKIDEPDTPYHNMIGDDEDVCSDSEGNEVMTPEILAKKLAAAEGSEPKFRTREQESSGEEDNDLSPEEREKKRQFEMKRKLHYNEGLNIKLARQLISKDLHDDDEDEEMSETADADSMNIEESNQGSTAGDHLQHKSQSS | 1.627 | 5.158 |  | 
4 | Arhgap35 pS1150 (protein, UniProt Q91YM2 1-1499, looked up, phosphorylated S1150) Rho GTPase-activating protein …: MMMARKQDVRIPTYNISVVGLSGTEKEKGQCGIGKSCLCNRFVRPSADEFHLDHTSVLSTSDFGGRVVNNDHFLYWGEVSRSLEDCVECKMHIVEQTEFIDDQTFQPHRSTALQPYIKRAAATKLASAEKLMYFCTDQLGLEQDFEQKQMPDGKLLVDGFLLGIDVSRGMNRNFDDQLKFVSNLYNQLAKTKKPIVVVLTKCDEGVERYIRDAHTFALSKKNLQVVETSARSNVNVDLAFSTLVQLIDKSRGKTKIIPYFEALKQQSQQIATAKDKYEWLVSRIVKNHNENWPSVSRKMQASPEYQDYVYLEGTQKAKKLFLQHIHRLKHEHIERRRKLYLAALPLAFEALIPNLDEVDHLSCIKAKKLLETKPEFLKWFVVLEETPWDATSHIDNMENERIPFDLMDTVPAEQLYETHLEKLRNERKRAEMRRAFKENLETSPFITPGKPWEEARSFIMNEDFYQWLEESVYMDIYGKHQKQIIDRAKEEFQELLLEYSELFYELELDAKPSKEKMGVIQDVLGEEQRFKALQKLQAERDALILKHIHFVYHPTKETCPSCPACVDAKIEHLISSRFIRPSDRNQKNSLSDLNIDRINLVILGKDGLARELANEIRALCTNDDKYVIDGKMYELSLRPIEGNVRLPVNSFQTPTFQPHGCLCLYNSKESLSYVVESIEKSRESTLGRRDNHLVHLPLTLILVNKRGDTSGETLHSLIQQGQQIASKLQCVFLDPASAGIGYGRNINEKQISQVLKGLLDSKRNLNLVSSTASIKDLADVDLRIVMCLMCGDPFSADDVLSPVLQSQTCKSSHCGSSNSVLLELPIGLHKKRIELSVLSYHSSFSIRKSRLVHGYIVFYSAKRKASLAMLRAFLCEVQDIIPIQLVALTDGAIDVLDNDLSREQLTEGEEIAQEIDGRFTSIPCSQPQHKLELFHPFFKDVVEKKNIIEATHMYDNVAEACSTTEEVFNSPRAGSPLCNSNLQDSEEDVEPPSYHLFREDATLPSLSKDHSKFSMELEGNDGLSFIMSNFESKLNNKVPPPVKPKPPVHFDITKDLSYLDQGHREGQRKSMSSSPWMPQDGFDPSDYAEPMDAVVKPRNEEENIYSVPHDSTQGKIITIRNINKAQSNGSGNGSDSEMDTSSLERGRKVSAVSKPVLYRTRCTRLGRFASYRTSFSVGSDDELGPIRKKEEDQASQGYKGDNAVIPYETDEDPRRRNILRSLRRNTKKPKPKPRPSITKATWESNYFGVPLTTVVTPEKPIPIFIERCIEYIEATGLSTEGIYRVSGNKSEMESLQRQFDQDHNLDLAEKDFTVNTVAGAMKSFFSELPDPLVPYSMQIDLVEAHKINDREQKLHALKEVLKKFPKENHEVFKYVISHLNKVSHNNKVNLMTSENLSICFWPTLMRPDFSSMDALTATRSYQTIIELFIQQCPFFFYNRPISEPPGAAPGSPSAMAPTVPFLTSTPATSQPSPPQSPPPTPQSPMQPLLSSQLQAEHTL |  |  | 0.2658 | 0.1001
5 | Stk10 pS13 (protein, UniProt E9PTG8 1-967, looked up, phosphorylated at S13) Serine/threonine-protein …: MAFANFRRILRLSTFEKRKSREYEHVRRDLDPNDVWEILGELGDGAFGKVYKAKNKETGALAAAKVIETKSEEELEDYIVEIEILATCDHPYIVKLLGAYYYDGKLWIMIEFCPGGAVDAIMLELDRGLTEPQIQVVCRQMLEALNFLHGKRIIHRDLKAGNVLMTLEGDIRLADFGVSAKNLKTLQKRDSFIGTPYWMAPEVVLCETMKDAPYDYKADIWSLGITLIEMAQIEPPHHELNPMRVLLKIAKSDPPTLLTPSKWSTEFRDFLKIALDKNPETRPSAAQLLQHPFVSTVTSNKALRELVAEAKAEVMEEIEDGKEDGSEKDAVSAVPPPVNHTQDSSANGTQPSLNSDKLLQDSSTPLPPSQPQEPVNGPCNQPSGDGSPQNTSPADEVSKNDNGLKVPVPLRKSRPLSVDARIQVTEEKQITDQAENPSSAASKPPKVNQSRPNSSALETLGVETLANGGLELPGSVTPNHSKRASDCSNLSTSESMDYGTSLSADLSLNKETGSLSLKGSKLHNKTLKRTRRFVVDGVEVSITTSKIISEDEKKDEEMRFLRRQELRELRLLQKEEHRNQTQLSTKHELQLEQMHRRFEQEINAKKKFYDVELENLERQQKQQVEKMEQDHSVRRREEAKRIRLEQDRDYARFQEQLKQMKKEVKRSIEKALRKQRQESMRMGQDSHTQKKQRLDRDFVAKQKEDLELAMKKLTAENRREICDKERDCLNKKQELLRDREAALWEMEEHQLQERHQLVKQQLKDQYFLQRHDLLRKHEKEREQMQRYNQRMMEQLKVRQQQEKARLPKIQRSDGKTRMAMYKKSLHINGAGSASEQREKVKQFSQQEEKRQKAERLQQQQKHENQMRDMVAQCESNMNELQQLQNEKCHLLVEHETQKLKALDESHNQSLKEWRDKLRPRKKALEEDLNQKKREQEMFFRLSEEAETRPTTPNRASKFFPYSSGDAS |  |  | 0.1825 | 0.7023
